± gives the standard error. For some assays here: Variants at the floor of the assay were thinned out.
B1: glmS ribozyme (parent)
chain: AUAAAAGCGCCAGAACUACAGAAAUGUAGUUGACGAGGAGGAGGUUUAUCGAAUUUUCGGCGGAUGCCUCCAAA

Tests used:
Settings in all cases: with glucosamine-6-phosphate
glucosamine-6-phosphate [1] = variants of: B1; experiment: kcat; higher = faster cleavage; RNA array
In short: (§1)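 Weighted Michaelis–Menten fits across concentrations supplied kcat and KM, based on kobs from one- or two-exponential decay fits to normalised per-tile medians. The data came from barcoded ribozyme variants transcribed in situ by E. coli RNA polymerase on sequenced MiSeq chips and tracked at 37 °C by a hybridised Cy3 probe. Glucosamine-6-phosphate (40 μM to 10 mM) in HEPES/KCl/Mg(OAc)2 buffer was flowed in.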

glucosamine-6-phosphate [2] = variants of: B1; experiment: KM; higher = weaker cofactor use; RNA array
In short: as §1

glucosamine-6-phosphate [3] = variants of: B1; experiment: self-cleavage kobs at 640 uM GlcN6P; higher = faster cleavage; RNA array
In short: as §1

glucosamine-6-phosphate [4] = variants of: B1; experiment: self-cleavage kobs at 2500 uM GlcN6P; higher = faster cleavage; RNA array
In short: as §1

glucosamine-6-phosphate [5] = variants of: B1; experiment: self-cleavage kobs at 10000 uM GlcN6P; higher = faster cleavage; RNA array
In short: as §1

glucosamine-6-phosphate [6] = variants of: B1; experiment: self-cleavage kobs at 160 uM GlcN6P; higher = faster cleavage; RNA array
In short: as §1

glucosamine-6-phosphate [7] = variants of: B1; experiment: self-cleavage kobs at 40 uM GlcN6P; higher = faster cleavage; RNA array
In short: as §1

Variant	kcat (glucosamine-6-phosphate [1]) [s⁻¹]	KM (glucosamine-6-phosphate [2]) [µM]	self-cleavage kobs at 640 uM GlcN6P (glucosamine-6-phosphate [3]) [s⁻¹]	self-cleavage kobs at 2500 uM GlcN6P (glucosamine-6-phosphate [4]) [s⁻¹]	self-cleavage kobs at 10000 uM GlcN6P (glucosamine-6-phosphate [5]) [s⁻¹]	self-cleavage kobs at 160 uM GlcN6P (glucosamine-6-phosphate [6]) [s⁻¹]	self-cleavage kobs at 40 uM GlcN6P (glucosamine-6-phosphate [7]) [s⁻¹]
A52U U69C	0.000239 ± 2.7e-05	1990 ± 540	5.38e-05 ± 2.2e-05	0.000152 ± 3.9e-05	0.000191 ± 4.2e-05	–	–
C50U U69G C70U	5.07e-05 ± 2.4e-05	–	8.65e-05 ± 3.1e-05	–	–	–	–
A52G U54A	0.00109 ± 0.00027	1560 ± 590	0.000442 ± 7.6e-05	0.00057 ± 0.00011	0.00101 ± 0.0002	9.56e-05 ± 1.7e-05	–
A52G U54G	0.00117 ± 0.00021	3060 ± 840	0.000183 ± 2.3e-05	0.000616 ± 8.2e-05	0.000855 ± 0.00012	6.71e-05 ± 1.6e-05	–
A52G G66U	0.00018 ± 2.4e-05	4030 ± 1300	2.89e-05 ± 1.1e-05	6.2e-05 ± 1.6e-05	0.00013 ± 1.5e-05	–	–
A53G C70G	0.000195 ± 1.8e-05	–	0.000196 ± 2.9e-05	0.000173 ± 2.5e-05	0.000215 ± 3.6e-05	0.000309 ± 9.5e-05	0.000132 ± 2.3e-05
A52G C67A	0.000584 ± 5.9e-05	1300 ± 300	0.000199 ± 3.2e-05	0.000301 ± 8.4e-05	0.000533 ± 5.6e-05	7.46e-05 ± 2e-05	–
A52U C68U	0.000287 ± 4.1e-06	2080 ± 62	6.72e-05 ± 8.8e-06	0.000158 ± 1.4e-05	0.000236 ± 2.4e-05	1.96e-05 ± 8.9e-06	–
A52G U56A	0.00139 ± 0.00027	4470 ± 1300	0.000166 ± 2.9e-05	0.000441 ± 7.1e-05	0.00102 ± 0.00014	6.31e-05 ± 1.3e-05	–
G51U A52G	< 1e-05	–	< 1e-05	< 1e-05	–	–	< 1e-05
C50U C67U	2.42e-05 ± 5.8e-06	–	–	3.69e-05 ± 1.4e-05	–	–	–
C50U C71U	5.37e-05 ± 8.4e-06	–	–	4.54e-05 ± 9.2e-06	4.57e-05 ± 1e-05	–	–
C50U A64G	0.000283 ± 5e-05	–	2.41e-05 ± 1e-05	5.38e-05 ± 7.8e-06	0.000141 ± 1.7e-05	–	–
A53C C71U	0.00685 ± 0.001	1760 ± 360	0.00167 ± 0.00036	0.00474 ± 0.00067	0.00509 ± 0.0011	0.000539 ± 0.0001	0.000156 ± 2.5e-05
A53C C71A	0.000797 ± 0.00016	1610 ± 520	0.000254 ± 0.00011	0.000705 ± 0.00017	0.000613 ± 0.00013	6.89e-05 ± 1.5e-05	–
